Article PMC8799735, “Depletion of mitochondrial methionine adenosyltransferase α1 triggers mitochondrial dysfunction in alcohol-associated liver disease” (Nature Communications, 2022)

Legend:
Conditions in all cases: partners not purified
[1] = biological target: T1, Peptidyl-prolyl cis/trans isomerase NIMA-interacting 1 (PIN1), endogenous mouse (mouse (endogenous in mouse hepatocytes, …, UniProt Q9QUR7 1-165)); assay: co-IP; AML-12 cell lysates, control or ethanol (100 mM, 48 h); IP with anti-PIN1 or anti-MATα1 antibodies, western blot, densitometry
T1 construct: source: endogenous, mouse hepatocyte lysate, mouse liver whole lysates and cytosolic fractions, AML-12 lysate

[2] = biological target: T1, Peptidyl-prolyl cis/trans isomerase …; assay: co-IP; whole liver lysates of pair-fed and ethanol-fed mice (NIAAA model); IP with anti-PIN1 or anti-MATα1 antibodies, western blot against MATα1 or PIN1, densitometry
[3] = biological target: T2, Peptidyl-prolyl cis/trans isomerase NIMA-interacting 1 (PIN1), endogenous human (human (endogenous in human hepatocytes, …, UniProt Q13526 1-163)); assay: co-IP; human normal and end-stage cirrhotic ALD liver lysates; IP with anti-PIN1 or anti-MATα1 antibodies, western blot against MATα1 or PIN1, densitometry
T2 construct: source: endogenous, human hepatocyte lysate, human liver lysates and HepG2 lysate
T2 sequence (Q13526 whole entry): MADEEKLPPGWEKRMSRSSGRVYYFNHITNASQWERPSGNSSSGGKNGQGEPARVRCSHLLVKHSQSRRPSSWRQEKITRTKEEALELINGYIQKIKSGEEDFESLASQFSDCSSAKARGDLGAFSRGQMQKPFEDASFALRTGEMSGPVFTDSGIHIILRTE

T1 sequence (Q9QUR7 whole entry): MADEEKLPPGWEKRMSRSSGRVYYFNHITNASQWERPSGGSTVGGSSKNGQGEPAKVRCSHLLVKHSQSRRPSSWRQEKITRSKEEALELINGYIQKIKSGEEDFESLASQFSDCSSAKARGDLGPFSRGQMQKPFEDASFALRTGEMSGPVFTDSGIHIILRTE

fold of co-precipitated signal, ethanol-treated against control AML-12 cells [1] [fold] | fold of co-precipitated signal, ethanol-fed against pair-fed mouse livers [2] [fold] | fold of co-precipitated signal, alcoholic cirrhotic livers against normal human livers [3] [fold] | Binder
3.5 | 2 | – | Methionine adenosyltransferase α1 (MATα1), endogenous mouse (natural protein, Methionine adenosyltransferase α1 (MATα1), mouse, endogenous; source: endogenous, mouse hepatocyte lysate, mouse liver whole lysates and cytosolic fractions, AML-12 lysate) not shown
– | – | 3.3 | Methionine adenosyltransferase α1 (MATα1), endogenous human (natural protein, Methionine adenosyltransferase α1 (MATα1), human, endogenous in hepatocytes and liver; source: endogenous, human hepatocyte lysate and human liver lysates (normal, ALD)) not shown
